Measurements: the supplement of paper PMC12042874
± gives the uncertainty stated by the source.

Test: amyloid nucleation score (Sup35N fusion, yeast selection) (log enrichment); library NNK3; higher = more nucleation; inactive = no reads after selection
In short: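 Random libraries were run with three technical output replicates. In each, psi-negative yeast expressing Sup35N fused to peptides of 20 random codons were induced 24 hours with 100 μM copper sulfate and grown 7 days at 30°C on medium lacking adenine and uracil, and input and output plasmid inserts were Illumina-sequenced. The nucleation score is the DiMSum log enrichment of output over input reads, centred on the mode score of non-aggregating sequences, and sequences under 100 input reads were excluded.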

Substance	amyloid nucleation score
CTRSVSILESLRDSNTSLSQ	inactive
LHNCPVDGWAAVSRSVVGRE	inactive
RSPEFCMS	inactive
IHKLHYIYGGLMSTWLLEDT	inactive
ADCGHLTYLSSNSRSLGRRK	0.197 ± 1
IDVTQERRVGDSTCALGTH	-0.168 ± 0.73
FWKAFRFTDSVFPIKHPNLS	inactive
LEKELRLCSKAWLSSQISIV	inactive
WGVNYMLWDCIYEATLSLIP	inactive
ASFLVYGP	inactive
PNAEGFFSVSGFCVVLNQSM	1.34 ± 0.087
RMSRNMWFWLRLNSNYIVFS	inactive
RNEDLSA	-0.096 ± 0.66
TSKFPSDLWSNPPEMYALFI	inactive
TTTAYWNESDTLRCMLV	-0.757 ± 1.4
AVLKILFVRPCYVINMSLKY	0.199 ± 0.64
TFSDRSFRQWVWQELSFCGS	inactive
WKGLL	inactive
VMCLRRMSFQCMQSQMEALA	inactive
RYILRSL	inactive
LGAWVGVFMLKQ	inactive
INLFICMCEKGYPHDSWVCC	2.58 ± 0.083
LAAEFTFMRPARGYFGNKVG	inactive
MNLDNFLFKVCLGSCF	inactive

Substance	amyloid nucleation score
YLVMTSLIC	inactive
DSKSSYK	inactive
IKSCGVNNIAFLQVCHRWCS	1.6 ± 0.082
HVNNTKSSLVRLSVLMHSVS	inactive
YKEMVRRNLSRANKFDCGSM	inactive
PLWHTWFGYAE	0.494 ± 0.24
PLEWNNGVYISGWLWVLVSW	-0.518 ± 0.63
NGWRCLTVWDLSLYHWGYFL	inactive
ICNSY	inactive
IYPLMKTELGRTMILIDLLE	inactive
GKVYLYLCLGMMFGL	inactive
TVVIVPNWPVCRGHDFGERC	inactive
YACMCLCELSASYKLDTMC	inactive
TSYYSMVEHSLKYQDRLMSS	inactive
TRDRCLRFKLVPVYFVWTCG	inactive
YGNEFEDNPSMATTTDQRAR	0.468 ± 0.22
WDKMYDDEGKGIVLEVVFLR	-0.012 ± 0.87
QPAFPWTYVFLLYHGW	inactive
ILIDSGSTLFSIIFQGLLLI	inactive
MFVVMWVDYLAEHMFYGRWW	inactive
WNTGNMLPSVFTQMFA	inactive
TVLLLGRWYN	1.24 ± 0.14
SFLTDMPKTKVYCAMNLPMI	-0.121 ± 0.66
CKGNINTYGYLYLDVYFYIM	1.94 ± 0.073

Substance	amyloid nucleation score
FSVFPLFVTGFQDILWVDLL	inactive
SCRLWHKRANRVGF	inactive
SYKMNVMT	inactive
YLTCDKTNVNGFMI	inactive
NEMQQYSHAPSPSVVWNAGF	inactive
LWLFSGCFGYYVILATLYFL	inactive
RWSVSSQTMLSIINDISFFG	0.099 ± 0.2
CLTVHTVNIIGMNFIVNVAL	2.72 ± 0.085
AFRGCSSLYS	inactive
RFSNAMLMCLVTNVSC	0.451 ± 0.61
GRWMMWFIEFYNGRQESWGN	inactive
YWSGRIKGTR	inactive
FLMVGKISKMFKQYNLLFH	inactive
AHITRGNKSGAVFASCRTWS	inactive
HSSGDTWLGRV	inactive
GAFSEDFRESGLFLNVREGE	inactive
LRYWPVCLVQIAFDFTVTGV	1.97 ± 0.062
GTMVSEIDWVRLTYTGYSE	inactive
VCWMSVRDNNNGHFLIYSSD	inactive
YSFRCVSTSVNGNRVMAAVS	inactive
SHSLSVGGFYSPDFRNYTCT	1.98 ± 0.082
RLYLESVYYFLSRAHRLSID	inactive
FSRTRVTLV	inactive
RRSSARGIRYMYSLNCNGEL	inactive

Substance	amyloid nucleation score
IGSYIKEGCAITMSRPLFKG	inactive
FISLWQPPRL	inactive
SLLGISVFKPERANTGQRLV	0.721 ± 0.23
KFADQALTHSQYATFLTGLY	inactive
RRYDNYRYSHRMFFKRFQAV	inactive
SWCSPNGPQGLEVCSMRPFR	inactive
LSFYCFNYSNFDMVWNGKYN	2.29 ± 0.062
EICKSLKLCNIWNCRIMLRS	inactive
SGVYLSGSSLVCNTFFGTNQ	1.78 ± 0.088
LGGNMTCLSQDYLRTSKELL	inactive
FTNFCS	inactive
QVFLSKVCMLFDVVARVVKR	inactive
NSKGMLCWLTA	inactive
ELGFCNWGGLSWLNQDSSGV	-0.085 ± 1
TTHNAFMSNNNIR	0.711 ± 0.13
YKGYSVCIVLPFG	-0.542 ± 0.98
SHYLLMFLVSDTLV	inactive
MMLGVLYATLWPLLKLDCGE	inactive
MILYPSYLPYLRMVDTTY	inactive
QILVLHIR	1.71 ± 0.079
YSWGRWICHNVVE	-0.21 ± 0.74
QTSST	inactive
CVTGVSLPGNRISG	inactive
SKRNPRMRSQLFIGDYFAYP	-1.13 ± 1.9

Substance	amyloid nucleation score
GTTRATPSGPLCMNGKENVV	inactive
FLMFKIPDTARELHVNSGLG	inactive
SLNNCGLLWYPSTTPPESLG	inactive
GLCSMLASFRTQYSS	inactive
ACGFSFF	-0.264 ± 0.98
GAPGLMFVFLKKSVFLYSYL	inactive
MDRYFQYPMQDMAQGTVRRD	-0.56 ± 1.7
MLVAGPLGQE	inactive
ATYAGSVITGLCEDTLYRNC	inactive
SAPNYVRSSLFCN	inactive
KREECILWLPLGNLLYNVLR	inactive
AHWSEYDAKFTKRLV	inactive
YLYMG	inactive
CLSLFTSGIV	inactive
IQCYNLSLPAGGEKLVRKRV	inactive
VGYFV	inactive
RYTFGTAIERVLQVILNEMT	inactive
MRWCNQDQL	inactive
RAEMMSYTLVQIIGYISIVE	inactive
YNRFLVVSGMGMSFYGKQYM	1.51 ± 0.074
AFVRMLW	1.49 ± 0.13
LPVVFLCRYDSI	inactive
RFIWIGIWKEGEGLADYSEK	inactive
